# ± gives the uncertainty stated by the source.
# Test: self-splicing fitness, log relative to wild type (ln ratio); higher = more splicing; Tetrahymena group I intron in knt gene, E. coli kanamycin selection, DiMSum; sequences stand for … in CUCUCU…GGAGGGAAAAGUUAUCAGGCAUGCACCUGGUAGCUAGUCUUUAAACCAAUAGAUUGCAUCGGUUUAAAAGGCAAGACCGUCAAAUUGCGGGAAAGGGGUCAACAGCCGUUCAGUACCAAGUCUCAGGGGAAACUUUGAGAUGGCCUUGCAAAGGGUAUGGUAAUAAGCUGACGGACAUGGUCCUAACCACGCAGCCAAGUCCUAAGUCAACAGAUCUUCUGUUGAUAUGGAUGCAGUUCACAGACUAAAUGUCGGUCGGGGAAGAUGUAUUCUUCUCAUAAGAUAUAGUCGGACCUCUCCUUAAUGGGAGCUAGCGGAUGAAGUGAUGCAACACUGGAGCCGCUGGGAACUAAUUUGUAUGCGAAAGUAUAUUGAUUAGUUUUGGAGUACUCGUGGUCG
# In short: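 Six replicate transformations of E. coli BL21(DE3) with a pET-22b(+) library were grown overnight at 37°C or 30°C. The library randomised all eight P1ex-region intron nucleotides, the intron lying in the knt kanamycin-resistance gene, and plates were LB agar with or without 25 μg/mL kanamycin plus 100 μg/mL carbenicillin, 50 μM IPTG and 0.2% rhamnose. Pooled colonies were amplicon-sequenced on an Illumina HiSeq 2500, and fitness is the DiMSum error-weighted combination of wild-type-normalised replicate fold changes, kanamycin versus none.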
Sequence,self-splicing fitness (ln) (30 °C),self-splicing fitness (ln) (37 °C)
CUUUAGCAAUAUUACGAGCA,-3.14 ± 0.25,-3.05 ± 0.3
GAACAGCAAUAUUACGCCCU,-1.69 ± 0.42,0.579 ± 0.37
AGUAAGCAAUAUUACGCAUA,-2.31 ± 0.25,-1.38 ± 0.15
GGACAGCAAUAUUACGAUAG,-3.66 ± 0.25,-2.13 ± 0.23
GUCAAGCAAUAUUACGAUCC,-1.48 ± 0.18,-0.693 ± 0.21
UGUGAGCAAUAUUACGCAGG,-3.81 ± 0.42,-1.39 ± 0.27
CUCGAGCAAUAUUACGUCCU,-2.54 ± 0.24,-2.55 ± 0.48
CUUGAGCAAUAUUACGAAUC,-4.03 ± 0.31,-1.86 ± 0.26
GACCAGCAAUAUUACGCAUU,-0.15 ± 0.053,0.0155 ± 0.067
GAAGAGCAAUAUUACGCAUG,-3.45 ± 0.47,-2.36 ± 0.33
UCGCAGCAAUAUUACGGUAG,-2.49 ± 0.086,-0.887 ± 0.086
UUAUAGCAAUAUUACGAAGA,–,-1.99 ± 0.32
ACGCAGCAAUAUUACGUCCC,–,-0.268 ± 0.48
UGAUAGCAAUAUUACGUUAU,-3.61 ± 0.18,-2.52 ± 0.17
CAGUAGCAAUAUUACGCGAA,-4.22 ± 0.43,-2.8 ± 0.31
GAAGAGCAAUAUUACGCCCA,-3.65 ± 0.48,-0.321 ± 0.31
CGGGAGCAAUAUUACGCAGU,–,-1.82 ± 0.29
AGCAAGCAAUAUUACGCUAU,-2.4 ± 0.1,-2.25 ± 0.15
UUAUAGCAAUAUUACGAGCU,–,-2.16 ± 0.26
UUUAAGCAAUAUUACGAGAC,-2.33 ± 0.48,-2.63 ± 0.33
GUCAAGCAAUAUUACGUCGA,-3.6 ± 0.42,-4.19 ± 0.46
AUUCAGCAAUAUUACGAGCC,-2.87 ± 0.47,-1.67 ± 0.45
GUGUAGCAAUAUUACGAUAA,-2.6 ± 0.19,-0.508 ± 0.12
CGUGAGCAAUAUUACGACAU,-3.809 ± 0.03,-2.19 ± 0.039
UAGCAGCAAUAUUACGUCGU,-3.4 ± 0.14,-1.97 ± 0.12

Sequence,self-splicing fitness (ln) (30 °C),self-splicing fitness (ln) (37 °C)
UAAGAGCAAUAUUACGGCAA,-2.23 ± 0.18,-2.03 ± 0.14
ACACAGCAAUAUUACGAGGC,-3.49 ± 0.17,-3.41 ± 0.29
CCGUAGCAAUAUUACGUUCC,-3.11 ± 0.47,–
UUUUAGCAAUAUUACGAUUA,-0.349 ± 0.16,0.0391 ± 0.13
UUUUAGCAAUAUUACGCUGG,-3.74 ± 0.39,-2.88 ± 0.44
GAGCAGCAAUAUUACGCAGA,-3.22 ± 0.21,-0.954 ± 0.1
GUCCAGCAAUAUUACGAAAG,-3.37 ± 0.21,-0.318 ± 0.17
CCGAAGCAAUAUUACGAUGU,-3.33 ± 0.27,-1.86 ± 0.15
UUUGAGCAAUAUUACGUGAA,-1.97 ± 0.17,-1.82 ± 0.17
AGGCAGCAAUAUUACGCGAG,-2.49 ± 0.13,-1.12 ± 0.13
UUCGAGCAAUAUUACGCCUG,-3.17 ± 0.29,-2.64 ± 0.2
CGCGAGCAAUAUUACGCCAG,-2.74 ± 0.18,-2.75 ± 0.24
GGCAAGCAAUAUUACGAUUG,-3.03 ± 0.19,-1.64 ± 0.16
GAGGAGCAAUAUUACGGUGC,-3.87 ± 0.28,-2.32 ± 0.15
CGAAAGCAAUAUUACGAACG,-1.08 ± 0.13,-0.291 ± 0.14
UGUGAGCAAUAUUACGCGGG,–,-2.31 ± 0.26
UUCCAGCAAUAUUACGCUAU,-2.04 ± 0.085,-0.605 ± 0.083
ACUUAGCAAUAUUACGUCCG,-2.09 ± 0.2,-0.774 ± 0.25
GUUCAGCAAUAUUACGCGCU,-2.34 ± 0.18,-1.13 ± 0.13
AUUUAGCAAUAUUACGGCCA,-0.814 ± 0.21,-0.925 ± 0.23
CCAUAGCAAUAUUACGUUCG,-0.579 ± 0.08,-0.674 ± 0.1
AGGGAGCAAUAUUACGUACU,-1.74 ± 0.26,-0.673 ± 0.35
CACCAGCAAUAUUACGGGCU,-4.86 ± 0.2,-2.8 ± 0.16
UGUAAGCAAUAUUACGUAAC,-2.22 ± 0.15,-2.91 ± 0.4
